Measurements taken from US20180057604A1 (Genentech, published 2018).

T1: cyno TfR extracellular domain (analogous construct to human TfR ecd) (cynomolgus monkey, UniProt Q5RDH6 87-760 (Pongo abelii entry))
T1 construct: also called cynoTfR ecd
T1 chain: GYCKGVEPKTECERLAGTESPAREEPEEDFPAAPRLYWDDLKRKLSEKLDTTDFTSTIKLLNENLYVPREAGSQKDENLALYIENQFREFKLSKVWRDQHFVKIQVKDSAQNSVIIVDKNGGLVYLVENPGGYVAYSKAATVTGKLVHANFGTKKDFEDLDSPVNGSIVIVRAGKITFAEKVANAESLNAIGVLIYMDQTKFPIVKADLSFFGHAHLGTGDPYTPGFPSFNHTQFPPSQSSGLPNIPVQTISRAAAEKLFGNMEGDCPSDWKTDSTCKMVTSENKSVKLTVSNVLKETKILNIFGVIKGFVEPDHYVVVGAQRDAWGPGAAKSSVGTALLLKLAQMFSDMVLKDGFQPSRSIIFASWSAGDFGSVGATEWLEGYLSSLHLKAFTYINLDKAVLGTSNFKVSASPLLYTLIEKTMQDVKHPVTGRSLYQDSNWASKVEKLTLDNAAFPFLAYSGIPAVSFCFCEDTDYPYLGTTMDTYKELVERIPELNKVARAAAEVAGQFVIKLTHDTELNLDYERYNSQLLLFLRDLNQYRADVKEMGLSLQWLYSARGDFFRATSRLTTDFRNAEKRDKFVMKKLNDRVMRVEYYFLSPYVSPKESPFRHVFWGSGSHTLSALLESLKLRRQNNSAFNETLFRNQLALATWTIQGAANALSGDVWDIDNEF


Key:
[1] = target: T2, human TfR extracellular domain with N-terminal His tag (human, UniProt P02786 89-760); assay: ELISA, TfR-coated plate, IgG in culture supernatant;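 further: human or cynomolgus TfR coated at 2 µg/mL, supernatant IgG titrated in 1:5 steps for 1 h, bound antibody read with HRP anti-human Fcγ and TMB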
T2 construct: Biotinylated in some assays; also called huTfR; HuTfR
Procedure: (§1) The Hu/Cy binding ELISA was performed in maxisorp plates coated with 2 μg/ml of purified human or cyno TfR in PBS at 4° C. overnight. Plates were washed with PBS/0.05% Tween 20 and blocked using Superblock blocking buffer in PBS (Thermo Scientific, Hudson, N.H.). Cell culture supernatants containing the expressed Ala scan variant IgGs were serially diluted 1:5 and added to the wells for 1 h. Plates were washed with PBS/0.05% Tween 20 and 1:1000 diluted HRP-Goat-anti human Fcγ (Jackson ImmunoResearch) was added the plate and incubated for 1 hour at room temperature. Plates were washed with PBS/0.05% Tween 20 and detected using TMB substrate (BioFX Laboratories, Owings Mills).

[2] = target: T1, cyno TfR extracellular domain …; assay: as above
Procedure: as §1

[3] = target: T2, human TfR extracellular domain with …; assay: SPR, TfR captured by anti-His, Fab injected;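 further: single cycle kinetics with a Fab dilution series, fitted by a one-to-one Langmuir model or a steady state model, KD taken as koff over kon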
Target sequence in this assay (P02786 89-760 G142S): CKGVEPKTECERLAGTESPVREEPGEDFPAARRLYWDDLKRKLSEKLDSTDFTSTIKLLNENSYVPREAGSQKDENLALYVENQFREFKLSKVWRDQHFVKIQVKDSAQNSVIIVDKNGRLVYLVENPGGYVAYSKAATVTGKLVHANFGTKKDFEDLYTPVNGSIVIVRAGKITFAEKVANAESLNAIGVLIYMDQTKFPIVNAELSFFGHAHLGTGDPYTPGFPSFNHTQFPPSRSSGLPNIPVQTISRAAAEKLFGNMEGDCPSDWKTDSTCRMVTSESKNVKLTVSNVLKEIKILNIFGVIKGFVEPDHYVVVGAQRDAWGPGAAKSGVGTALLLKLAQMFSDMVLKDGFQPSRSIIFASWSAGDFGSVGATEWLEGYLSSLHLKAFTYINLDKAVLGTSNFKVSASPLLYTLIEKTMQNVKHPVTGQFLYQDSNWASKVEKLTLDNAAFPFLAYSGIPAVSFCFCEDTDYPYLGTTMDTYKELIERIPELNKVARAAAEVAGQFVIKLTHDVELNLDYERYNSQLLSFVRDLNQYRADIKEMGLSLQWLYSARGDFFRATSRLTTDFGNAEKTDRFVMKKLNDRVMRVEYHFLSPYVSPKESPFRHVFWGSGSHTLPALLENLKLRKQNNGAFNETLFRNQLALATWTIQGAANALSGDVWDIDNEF

[4] = target: T3, human BACE1 ECD; assay: Octet, pH 7.5;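 further: antibodies captured on anti-human capture sensor tips, dissociation monitored in PBS with BSA, Kd obtained from kinetic fit to a one-to-one binding model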
T3 construct: analyte of the Octet assay (200 nM) and enzyme of the first short substrate assay; also called human BACE1 extracellular domain
Procedure: (§2) Anti-BACE1 antibodies were loaded onto anti-human capture (AHC) sensors (tips) followed by 60 seconds baseline in assay buffer. […] Tips were transferred to assay buffer for 5 minutes, 30 minutes, or 120 minutes depending on the off-rate, for off-rate measurement. Assay buffer was either PBS+0.1% BSA, pH 7.5; or PBS+0.1% BSA, pH 5.0. Kinetics were analyzed using a 1:1 binding model.

[5] = target: T4, murine BACE1 ECD; assay: Octet, pH 7.5;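 further: antibodies captured on anti-human capture sensor tips, dissociation monitored in PBS with BSA, Kd obtained from kinetic fit to a one-to-one binding model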
T4 construct: analyte of the Octet assay (200 nM) and enzyme of the first short substrate assay
Procedure: as §2

[6] = target: T3, human BACE1 ECD; assay: Octet, pH 5.0;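 further: antibodies captured on anti-human capture sensor tips, dissociation monitored in PBS with BSA buffer, kinetics fitted with a one-to-one binding model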
Procedure: as §2

[7] = target: T4, murine BACE1 ECD; assay: Octet, pH 5.0;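 further: antibodies captured on anti-human capture sensor tips, dissociation monitored in PBS with BSA buffer, kinetics fitted with a one-to-one binding model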
Procedure: as §2

[8] = target: BACE1 in primary mouse cortical neurons (mouse, UniProt P56818 46-501); assay: cell-based or functional assay
BACE1 in primary mouse cortical neurons, sequence (P56818 46-501): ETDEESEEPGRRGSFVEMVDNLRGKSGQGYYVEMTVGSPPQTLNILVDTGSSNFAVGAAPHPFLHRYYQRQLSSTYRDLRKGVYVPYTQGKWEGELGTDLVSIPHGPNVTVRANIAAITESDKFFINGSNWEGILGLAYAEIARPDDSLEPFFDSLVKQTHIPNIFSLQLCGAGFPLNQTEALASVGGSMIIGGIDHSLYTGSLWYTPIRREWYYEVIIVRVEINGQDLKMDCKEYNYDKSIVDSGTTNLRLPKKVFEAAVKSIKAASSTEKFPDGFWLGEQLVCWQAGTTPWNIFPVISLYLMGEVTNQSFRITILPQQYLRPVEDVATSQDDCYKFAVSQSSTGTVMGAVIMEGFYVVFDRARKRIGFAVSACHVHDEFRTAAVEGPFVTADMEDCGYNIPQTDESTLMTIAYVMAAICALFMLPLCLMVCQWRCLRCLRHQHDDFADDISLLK

T3 sequence (single chain, as listed by the source limits assumed): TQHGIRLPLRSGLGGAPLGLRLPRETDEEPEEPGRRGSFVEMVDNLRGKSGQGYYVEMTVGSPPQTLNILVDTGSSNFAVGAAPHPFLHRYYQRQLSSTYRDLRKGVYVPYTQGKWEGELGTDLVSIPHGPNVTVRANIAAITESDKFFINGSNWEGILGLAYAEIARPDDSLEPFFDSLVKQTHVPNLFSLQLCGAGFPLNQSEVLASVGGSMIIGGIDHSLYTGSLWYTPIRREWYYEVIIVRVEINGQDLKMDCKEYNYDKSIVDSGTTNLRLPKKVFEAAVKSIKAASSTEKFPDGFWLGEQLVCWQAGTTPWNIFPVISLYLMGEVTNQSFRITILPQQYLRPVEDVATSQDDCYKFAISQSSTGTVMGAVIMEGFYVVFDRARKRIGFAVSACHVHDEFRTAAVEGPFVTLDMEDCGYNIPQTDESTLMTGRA
T4 sequence (single chain, as listed by the source limits assumed): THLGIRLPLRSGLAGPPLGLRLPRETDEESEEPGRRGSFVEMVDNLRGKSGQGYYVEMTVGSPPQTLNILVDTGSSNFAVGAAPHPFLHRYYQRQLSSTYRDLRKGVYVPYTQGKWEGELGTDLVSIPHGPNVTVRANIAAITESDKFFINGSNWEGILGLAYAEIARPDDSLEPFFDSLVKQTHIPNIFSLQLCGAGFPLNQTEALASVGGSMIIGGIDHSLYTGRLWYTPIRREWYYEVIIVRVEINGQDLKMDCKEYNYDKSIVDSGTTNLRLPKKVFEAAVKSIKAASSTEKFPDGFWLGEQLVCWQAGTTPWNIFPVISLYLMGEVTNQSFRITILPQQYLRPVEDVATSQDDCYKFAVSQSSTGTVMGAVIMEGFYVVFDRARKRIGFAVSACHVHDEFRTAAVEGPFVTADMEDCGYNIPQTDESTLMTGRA

| Binder | EC50 [1] | EC50 [2] | Kd [4] | Kd [5] | Kd [6] | Kd [7] | IC50, Abeta x-40 in mouse cortical neurons [8] | maximal % inhibition of Abeta x-40 [8] | further results |
| --- | --- | --- | --- | --- | --- | --- | --- | --- | --- |
| hu15G11.v5 IgG Ala variant T28A (HVR-H1) (antibody, name in Kabat numbering, V domains shown, IgG in cell culture supernatant) VH: EVQLVQSGAEVKKPGASVKVSCKASGYAFTSYWMHWVRQAPGQRLEWIGEINPTNGRTNYIEKFKSRATLTVDKSASTAYMELSSLRSEDTAVYYCARGTRAYHYWGQGTMVTVSS VL: DIQMTQSPSSLSASVGDRVTITCRASDNLYSNLAWYQQKPGKSPKLLVYDATNLADGVPSRFSGSGSGTDYTLTISSLQPEDFATYYCQHFWGTPLTFGQGTKVEIK | 0.4 ng/mL | 0.8 ng/mL | – | – | – | – | – | – | – |
| Hu7A4.v5.Fab (Fab, V domains shown, Fab) VH: EVQLVQSGAEVKKPGASVKVSCKASGYTFTDYAMHWVRQAPGQGLEWMGGISTYFGRTNYNQKFKGRVTMTRDTSISTAYMELSRLRSDDTAVYYCARGLSGNYVMDYWGQGTTVTVSS VL: DIVMTQSPDSLAVSLGERATINCRASESVDSYGNSFMHWYQQKPGQPPKLLIYRASNLESGIPDRFSGSGSGTDFTLTISSLQAEDVAVYYCQQSNEGPPTFGQGTKLEIK | – | – | – | – | – | – | – | – | Kd [3]: 0.686 nM; koff [3]: 0.00153 s⁻¹; kon [3]: 2.24e+06 M⁻¹ s⁻¹ |
| Hu7A4.v8.Fab (Fab, V domains shown, Fab) VH: EVQLVQSGAEVKKPGASVKVSCKGSGYTFTDYAMHWVRQAPGQGLEWMGGISTYFGRTNYNQKFKGRVTMTVDTSISTAYMELSRLRSDDTAVYYCARGLSGNYVMDYWGQGTTVTVSS VL: DIVMTQSPDSLAVSLGERATINCRASESVDSYGNSFMHWYQQKPGQPPKLLIYRASNLESGIPDRFSGSGSGTDFTLTISSLQAEDVAVYYCQQSNEGPPTFGQGTKLEIK | – | – | – | – | – | – | – | – | Kd [3]: 1.15 nM; koff [3]: 0.00107 s⁻¹; kon [3]: 928000 M⁻¹ s⁻¹ |
| 5987 (antibody, V domains shown, anti-BACE1 IgG) VH: QVQLVQSGAEVKKPGSSVKVSCKASGGTLSGYAISWVRQAPGQGLEWMGNIIPGFGTANYAQKSQGRVTITADESTSTAYMELSSLRSEDTAVYYCARSGGTRYGMLDVWGQGTMVTVSS VL: EIVMTQSPATLSVSPGERATLSCRASQSVSSNLAWYQQKPGQAPRLLIYGASTRATGIPARFSGSGSGTEFTLTISSLQSEDFAVYYCQQLFLWPPRTFGGGTKVEIK | – | – | < 0.32 nM | < 0.29 nM | < 0.25 nM | < 0.29 nM | 7.2 nM | 69% | – |
| 6273 (antibody, V domains shown, anti-BACE1 IgG) VH: QVQLVQSGAEVKKPGSSVKVSCKASGGTFSGYGISWVRQAPGQGLEWMGNIIPGFGTANYAQKFQGRVTITADESTSTAYMELSSLRSEDTAVYYCARSGGTKYGMLDVWGQGTMVTVSS VL: EIVMTQSPATLSVSPGERATLSCRASQSVSSNIAWYQQKPGQAPRLLIYGASTRATGIPARFSGSGSGTEFTLTISSLQSEDFAVYYCQQLLLWPPRTFGGGTKVEIK | – | – | < 0.39 nM | < 0.39 nM | < 0.26 nM | < 0.4 nM | 5.71 nM | 82% | – |
| 5988 (antibody, V domains shown, anti-BACE1 IgG) VH: QVQLVQSGAEVKKPGSSVKVSCKASGGTLSGYAISWVRQAPGQGLEWMGNIIPGFGTANYAQKSQGRVTITADESTSTAYMELSSLRSEDTAVYYCARSGGTRYGMLDVWGQGTMVTVSS VL: GIVMTQSPATLSVSPGERATLSCRASQSVGSNLAWYQQKPGQAPRLLIYGASTRATGIPARFSGSGSGTEFTLTISSLQSEDFAVYYCQQLYTWPPRTFGGGTKVEIK | – | – | < 0.29 nM | < 0.29 nM | < 0.25 nM | < 0.29 nM | 3.55 nM | 75% | – |
| 6272 (antibody, V domains shown, anti-BACE1 IgG) VH: QVQLVQSGAEVKKPGSSVKVSCKASGGTFSGYGISWVRQAPGQGLEWMGNIIPGFGTANYAQKFQGRVTITADESTSTAYMELSSLRSEDTAVYYCARSGGTKYGMLDVWGQGTMVTVSS VL: EIVMTQSPATLSVSPGERATLSCRASQSVSSNLAWYQQKPGQAPRLLIYGASTRATGIPARFSGSGSGTEFTLTISSLQSEDFAVYYCQQLFLWPPRTFGGGTKVEIK | – | – | < 0.87 nM | < 0.41 nM | < 0.39 nM | < 0.4 nM | 43.6 nM | 82% | – |
| 6271 (antibody, V domains shown, anti-BACE1 IgG) VH: QVQLVQSGAEVKKPGSSVKVSCKASGGTISGYGISWVRQAPGQGLEWMGNIIPGFGTANYAQKFQGRVTITADESTSTAYMELSSLRSEDTAVYYCARSGGTKYGMLDVWGQGTMVTVSS VL: EIVMTQSPATLSVSPGERATLSCRASQSVSSNLAWYQQKPGQAPRLLIYGASTRATGIPARFSGSGSGTEFTLTISSLQSEDFAVYYCQQLILWPPRTFGGGTKVEIK | – | – | < 0.31 nM | < 0.31 nM | < 0.24 nM | < 0.31 nM | 1.77 nM | 83% | – |

The next lines start with results.

| EC50 [1] | EC50 [2] | Kd [4] | Kd [5] | Kd [6] | Kd [7] | IC50, Abeta x-40 in mouse cortical neurons [8] | maximal % inhibition of Abeta x-40 [8] | Binder | further results |
| --- | --- | --- | --- | --- | --- | --- | --- | --- | --- |
| 0.3 ng/mL | 1 ng/mL | – | – | – | – | – | – | hu15G11.v5 IgG Ala variant Y30A (HVR-L1) (antibody, V domains shown, IgG in cell culture supernatant) VH: EVQLVQSGAEVKKPGASVKVSCKASGYTFTSYWMHWVRQAPGQRLEWIGEINPTNGRTNYIEKFKSRATLTVDKSASTAYMELSSLRSEDTAVYYCARGTRAYHYWGQGTMVTVSS VL: DIQMTQSPSSLSASVGDRVTITCRASDNLASNLAWYQQKPGKSPKLLVYDATNLADGVPSRFSGSGSGTDYTLTISSLQPEDFATYYCQHFWGTPLTFGQGTKVEIK | – |
| 0.4 ng/mL | 0.9 ng/mL | – | – | – | – | – | – | hu15G11.v5 IgG Ala variant T30A (HVR-H1) (antibody, name in Kabat numbering, V domains shown, IgG in cell culture supernatant) VH: EVQLVQSGAEVKKPGASVKVSCKASGYTFASYWMHWVRQAPGQRLEWIGEINPTNGRTNYIEKFKSRATLTVDKSASTAYMELSSLRSEDTAVYYCARGTRAYHYWGQGTMVTVSS VL: DIQMTQSPSSLSASVGDRVTITCRASDNLYSNLAWYQQKPGKSPKLLVYDATNLADGVPSRFSGSGSGTDYTLTISSLQPEDFATYYCQHFWGTPLTFGQGTKVEIK | – |
| 0.3 ng/mL | 0.7 ng/mL | – | – | – | – | – | – | hu15G11.v5 IgG Ala variant T53A (HVR-H2) (antibody, V domains shown, IgG in cell culture supernatant; also called 15G11.T53A; 15G11.53A) VH: EVQLVQSGAEVKKPGASVKVSCKASGYTFTSYWMHWVRQAPGQRLEWIGEINPANGRTNYIEKFKSRATLTVDKSASTAYMELSSLRSEDTAVYYCARGTRAYHYWGQGTMVTVSS VL: DIQMTQSPSSLSASVGDRVTITCRASDNLYSNLAWYQQKPGKSPKLLVYDATNLADGVPSRFSGSGSGTDYTLTISSLQPEDFATYYCQHFWGTPLTFGQGTKVEIK | – |
| 0.3 ng/mL | 0.7 ng/mL | – | – | – | – | – | – | hu15G11.v5 IgG Ala variant Y59A (HVR-H2) (antibody, name in Kabat numbering, V domains shown, IgG in cell culture supernatant; Kabat numbers after 52a lie one below the linear count) VH: EVQLVQSGAEVKKPGASVKVSCKASGYTFTSYWMHWVRQAPGQRLEWIGEINPTNGRTNAIEKFKSRATLTVDKSASTAYMELSSLRSEDTAVYYCARGTRAYHYWGQGTMVTVSS VL: DIQMTQSPSSLSASVGDRVTITCRASDNLYSNLAWYQQKPGKSPKLLVYDATNLADGVPSRFSGSGSGTDYTLTISSLQPEDFATYYCQHFWGTPLTFGQGTKVEIK | – |
| 0.2 ng/mL | 0.3 ng/mL | – | – | – | – | – | – | hu15G11.v5 IgG Ala variant T52A (HVR-L2) (antibody, V domains shown, IgG in cell culture supernatant) VH: EVQLVQSGAEVKKPGASVKVSCKASGYTFTSYWMHWVRQAPGQRLEWIGEINPTNGRTNYIEKFKSRATLTVDKSASTAYMELSSLRSEDTAVYYCARGTRAYHYWGQGTMVTVSS VL: DIQMTQSPSSLSASVGDRVTITCRASDNLYSNLAWYQQKPGKSPKLLVYDAANLADGVPSRFSGSGSGTDYTLTISSLQPEDFATYYCQHFWGTPLTFGQGTKVEIK | – |
| 0.4 ng/mL | 1.4 ng/mL | – | – | – | – | – | – | hu15G11.v5 IgG Ala variant Y32A (HVR-H1) (antibody, name in Kabat numbering, V domains shown, IgG in cell culture supernatant) VH: EVQLVQSGAEVKKPGASVKVSCKASGYTFTSAWMHWVRQAPGQRLEWIGEINPTNGRTNYIEKFKSRATLTVDKSASTAYMELSSLRSEDTAVYYCARGTRAYHYWGQGTMVTVSS VL: DIQMTQSPSSLSASVGDRVTITCRASDNLYSNLAWYQQKPGKSPKLLVYDATNLADGVPSRFSGSGSGTDYTLTISSLQPEDFATYYCQHFWGTPLTFGQGTKVEIK | – |
